Measured values from PMC5327734 (Nature communications, 2015).

Target: T1, pre-activated, recombinant, full length, human MST1 protein kinase (human, UniProt Q13043 1-487)
T1 sequence (looked up): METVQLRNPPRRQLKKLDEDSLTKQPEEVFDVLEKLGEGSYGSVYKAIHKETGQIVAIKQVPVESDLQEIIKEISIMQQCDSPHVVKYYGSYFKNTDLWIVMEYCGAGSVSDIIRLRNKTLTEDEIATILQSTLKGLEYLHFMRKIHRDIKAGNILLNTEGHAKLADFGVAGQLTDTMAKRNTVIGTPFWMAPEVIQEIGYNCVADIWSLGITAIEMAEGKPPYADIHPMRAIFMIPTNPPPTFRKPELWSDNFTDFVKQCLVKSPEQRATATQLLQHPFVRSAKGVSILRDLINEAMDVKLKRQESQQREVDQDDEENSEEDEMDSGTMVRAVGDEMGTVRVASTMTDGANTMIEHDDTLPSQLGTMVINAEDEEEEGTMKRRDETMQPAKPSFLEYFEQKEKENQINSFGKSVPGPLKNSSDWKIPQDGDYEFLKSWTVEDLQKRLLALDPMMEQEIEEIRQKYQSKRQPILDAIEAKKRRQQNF
Test: pull-down

B1: GST-YAP1-PR/TEAD (residues 2-150) (domain or fragment, UniProt P46937 2-150, looked up)
chain: DPGQQPPPQPAPQGQGQPPSQPPQGQGPPSGPGQPAPAATQAAPQAPPAGHQIVHVRGDSETDLEALFNAVMNPKTANVPQTVPMRLRKLPDSFFKPPEPKSHSRQASTDAGTAGALTPQHVRAHSSPASLQLGAVSPGTLTPTGVVSG
binding result: binds
